Measured values from patent US20050054615A1, “Calmodulin independent activation of nitric oxide synthase” (Rensselaer Polytechnic Institute, priority 2002, published 2005).

Molecular target: T1, eNOS (Bos taurus, UniProt P29473, DEL841-841)
T1 construct: made in house; host or cells: E. coli BL21 (pCWori+)
Test: NO synthase activity per heme of eNOS mutants
Assay type: biochemical, bovine
Details: fully activated state (Ca+2/CaM)
Method: Expression and purification of wild type and mutant bovine eNOS and rat nNOS. Expression and purification of bovine eNOS and rat nNOS were performed using procedures similar to those previously described (Martasek, P.,et al., (1996) Biochem Biophys Res Commun. 219(2); 359-65). Transformed cells were broken with a French press, and after centrifugation to remove cell debris the supernatant was loaded on a 2′5′ADP affinity column, washed, and eluted with 2′AMP as described (id). […] Enzyme sample concentrations were determined on the basis of heme concentration, except in heme free preparations, where the flavin concentration was measured. UV-visible absorbance spectra were recorded on an Aminco DW-2000 spectrophotometer.
Nitric Oxide production was assayed using the Griess assay as adapted for microtiter plates (Gross, S. S. (1996) Methods Enzymol. 268:159-68); calcium dependence was measured using EDTA as a Ca+2 buffer system. […] NADPH-dependent cytochrome c reduction was measured spectrophotometrically as described by McMillan et al (McMillan, K., et al., (1992) Proc Nat. Acad. Sci. U.S.A. 89, 11141-11145), adapted to 96-well plate microtiter plates. […] Cytochrome c reduction was monitored at 550 nm (ε=2.1×104/M). […] Assays were performed on a SpectraMAX plate reader (Molecular Devices).

B1: G841 deletion mutant: bovine eNOS small insertion mutant with G841 deleted (protein, UniProt P29473 2-1205, looked up, variant G841*)
Nitric oxide synthase 3: GNLKSVGQEPGPPCGLGLGLGLGLCGKQGPASPAPEPSRAPAPATPHAPDHSPAPNSPTLTRPPEGPKFPRVKNWELGSITYDTLCAQSQQDGPCTPRCCLGSLVLPRKLQTRPSPGPPPAEQLLSQARDFINQYYSSIKRSGSQAHEERLQEVEAEVASTGTYHLRESELVFGAKQAWRNAPRCVGRIQWGKLQVFDARDCSSAQEMFTYICNHIKYATNRGNLRSAITVFPQRAPGRGDFRIWNSQLVRYAGYRQQDGSVRGDPANVEITELCIQHGWTPGNGRFDVLPLLLQAPDEAPELFVLPPELVLEVPLEHPTLEWFAALGLRWYALPAVSNMLLEIGGLEFSAAPFSGWYMSTEIGTRNLCDPHRYNILEDVAVCMDLDTRTTSSLWKDKAAVEINLAVLHSFQLAKVTIVDHHAATVSFMKHLDNEQKARGGCPADWAWIVPPISGSLTPVFHQEMVNYILSPAFRYQPDPWKGSATKGAGITRKKTFKEVANAVKISASLMGTLMAKRVKATILYASETGRAQSYAQQLGRLFRKAFDPRVLCMDEYDVVSLEHEALVLVVTSTFGNGDPPENGESFAAALMEMSGPYNSSPRPEQHKSYKIRFNSVSCSDPLVSSWRRKRKESSNTDSAGALGTLRFCVFGLGSRAYPHFCAFARAVDTRLEELGGERLLQLGQGDELCGQEEAFRGWAKAAFQASCETFCVGEEAKAAAQDIFSPKRSWKRQRYRLSTQAEGLQLLPGLIHVHRRKMFQATVLSVENLQSSKSTRATILVRLDTAGQEGLQYQPGDHIGICPPNRPGLVEALLSRVEDPPPPTESVAVEQLEKGSPGPPPSWVRDPRLPPCTLRQALTFFLDITSPPSPRLLRLLSTLAEEPSEQQELETLSQDPRRYEEWKWFRCPTLLEVLEQFPSVALPAPLLLTQLPLLQPRYYSVSSAPNAHPGEVHLTVAVLAYRTQDGLGPLHYGVCSTWLSQLKTGDPVPCFIRGAPSFRLPPDPYVPCILVGPGTGIAPFRGFWQERLHDIESKGLQPAPMTLVFGCRCSQLDHLYRDEVQDAQERGVFGRVLTAFSREPDSPKTYVQDILRTELAAEVHRVLCLERGHMFVCGDVTMATSVLQTVQRILATEGDMELDEAGDVIGVLRDQQRYHEDIFGLTLRTQEVTSRIRTQSFSLQERHLRGAVPWAFDPPGPDTPGP
activity per heme in the fully activated state: 85 % of wild type
